Results taken from patent US7713943B2, “Further use of protein kinase N beta” (Silence Therapeutics Aktiengesellschaft (AG), priority 2002, dated 2010).
Positions count from the first letter of the chain named. “Also recorded” adds a separate entry of the source.

Legend:
[1] = test system: MPB (myelin basic protein); experiment: In vitro kinase activity of protein kinase N beta derivatives, MPB/MBP phosphorylation; assay type: biochemical; design: key to Activity: +: active; −: inactive; !: no “hyper activation” was observed as one might have expected from comparable mutations in other kinases (Morgan and Debond, 1994); conditions: for phosphorylation of MBP, 32P incorporation: immune precipitates, gamma 32P-ATP, autoradiography, FIG. 11B
Protocol: The respective fragments were transiently epressed in HeLa cells. Their relative expression was determined by Western-blot analysis of Hela cell extracts using an anti-PKNbeta antibody.
MPB is myelin basic protein which is a standard in vitro phosphorylation substrate.
As may be taken from FIG. 9A apart from the full-length protein kinase N beta only the kinase domain in its otherwise wildtype form is active in phosphorylating MPB.
The PKNbeta-derived molecules were immune-precipitated from the cell extracts shown in FIG. 10 by using anti-tag antibodies. The immune precipitates were washed as described (Klippel et al., 1996) and divided in two halfs. One half was incubated with 5 μg MBP (UBI) as a phosphorylation substrate, 4 mM MgCl2 and gamma ^32P-ATP in a buffered solution for 10 min at room temperature. In addition, phosphatase inhibitors and inhibitors against unspecifically acting kinases were added as in Klippel et al., 1998. Incorporation of radioactive phosphate was detected by autoradiography after separating the reaction products by 16% SDS-PAGE (FIG. 11B).

GST-GSK3 fusion protein = experiment: Non-radioactive in vitro kinase assay, anti-phospho GSK3alpha Western blot; assay type: biochemical; conditions: immune precipitates, 200 μM rATP, FIG. 11A
Protocol: The second half of the immune precipitates was incubated with 1 μg GST-GSK3 fusion protein (Cell Signaling Technology) as a phosphorylation substrate in the presence of 200 μM rATP. The reaction mixture was subsequently analyzed by 8-16% gradient SDS-PAGE and Western blotting using the anti-phospho GSK3alpha antibody (Cell Signaling Technology) (FIG. 11A).
The specificity of the in vitro phosphorylation reactions was controlled by analyzing kinase defective variants (e.g. containing mutations in the ATP binding site, see above) in parallel to active protein.
In a first step, the suitability of a non-radioactive screening formate was determined, whereby the various protein kinase N beta derivatives as already discussed in connection with example 10, were used for phosphorylating a suitable substrate. Such substrate may, for example, be MBP or a GSK3 peptide which is typically immobilised on a suitable carrier such as agarose- or sepharose beads or on plastic surfaces. In the present case and as depicted in FIG. 11A, the substrate is a GSK3-derived peptide fused to paramyosin. […] The phosphorylated substrate in the present case was detected by anti-phospho GSK3 alpha antibody (mentioned above).

B1: ΔN comprising amino acids 288-889: protein kinase N beta derivative comprising amino acids 288-889 (protein, UniProt Q6P5Z2 288-889, looked up, fragment)
chain: CEQLLTAVPGRSPAAALASSPSEGWLRTKAKHQRGRGELASEVLAVLKVDNRVVGQTGWGQVAEQSWDQTFVIPLERARELEIGVHWRDWRQLCGVAFLRLEDFLDNACHQLSLSLVPQGLLFAQVTFCDPVIERRPRLQRQERIFSKRRGQDFLRASQMNLGMAAWGRLVMNLLPPCSSPSTISPPKGCPRTPTTLREASDPATPSNFLPKKTPLGEEMTPPPKPPRLYLPQEPTSEETPRTKRPHMEPRTRRGPSPPASPTRKPPRLQDFRCLAVLGRGHFGKVLLVQFKGTGKYYAIKALKKQEVLSRDEIESLYCEKRILEAVGCTGHPFLLSLLACFQTSSHACFVTEFVPGGDLMMQIHEDVFPEPQARFYVACVVLGLQFLHEKKIIYRDLKLDNLLLDAQGFLKIADFGLCKEGIGFGDRTSTFCGTPEFLAPEVLTQEAYTRAVDWWGLGVLLYEMLVGECPFPGDTEEEVFDCIVNMDAPYPGFLSVQGLEFIQKLLQKCPEKRLGAGEQDAEEIKVQPFFRTTNWQALLARTIQPPFVPTLCGPADLRYFEGEFTGLPPALTPPAPHSLLTARQQAAFRDFDFVSERFLEP
Activity ([1]; transient overexpression in HeLa cells, MPB substrate, FIG. 9): −*

B2: Full length wt: full length wildtype PKNbeta molecule (889 amino acids) (protein)
chain: MEEGAPRQPGPSQWPPEDEKEVIRRAIQKELKIKEGVENLRRVATDRRHLGHVQQLLRSSNRRLEQLHGELRELHARILLPGPGPGPAEPVASGPRPWAEQLRARHLEALRRQLHVELKVKQGAENMTHTCASGTPKERKLLAAAQQMLRDSQLKVALLRMKISSLEASGSPEPGPELLAEELQHRLHVEAAVAEGAKNVVKLLSSRRTQDRKALAEAQAQLQESSQKLDLLRLALEQLLEQLPPAHPLRSRVTRELRAAVPGYPQPSGTPVKPTALTGTLQVRLLGCEQLLTAVPGRSPAAALASSPSEGWLRTKAKHQRGRGELASEVLAVLKVDNRVVGQTGWGQVAEQSWDQTFVIPLERARELEIGVHWRDWRQLCGVAFLRLEDFLDNACHQLSLSLVPQGLLFAQVTFCDPVIERRPRLQRQERIFSKRRGQDFLRRSQMNLGMAAWGRLVMNLLPPCSSPSTISPPKGCPRTPTTLREASDPATPSNFLPKKTPLGEEMTPPPKPPRLYLPQEPTSEETPRTKRPHMEPRTRRGPSPPASPTRKPPRLQDFRCLAVLGRGHFGKVLLVQFKGTGKYYAIKALKKQEVLSRDEIESLYCEKRILEAVGCTGHPFLLSLLVCFQTSSHARFVTEFVPGGDLMMQIHEDVFPEPQARFYVACVVLGLQFLHEKKIIYRDLKLDNLLLDAQGFLKIADFGLCKEGIGFGDRTSTFCGTPEFLAPEVLTQEAYTQAVDWWALGVLLYEMLVGECPFPGDTEEEVFDCIVNMDAPYPGFLSVQGLEFIQKLLQKCPEKRLGAGEQDAEEIKVQPFFRTTNWQALLARTIQPPFVPTLCGPADLRYFEGEFTGLPPALTPPAPHSLLTARQQAAFRDFDFVSERFLEP
phosphorylation of MBP, 32P incorporation [1]: show activity | phosphorylating MPB (FIG. 9A) ([1]; transient overexpression in HeLa cells): active | phosphorylation of GSK3-derived substrate (GST-GSK3 fusion protein; listed as full length wildtype protein kinase N beta): suitable to phosphorylate the substrate; also recorded: show activity

B3: full length TA: full length protein kinase N beta with TA mutation at amino acid 718 (protein)
chain: B2 chain with T718A
phosphorylation of MBP, 32P incorporation [1]: background activity of unspecific kinases | phosphorylation of GSK3-derived substrate (GST-GSK3 fusion protein): no

B4: full length KE: full length protein kinase N beta with kinase defective KE mutation at position 588 (protein)
chain: B2 chain with K588E
phosphorylation of MBP, 32P incorporation [1]: background activity of unspecific kinases | phosphorylation of GSK3-derived substrate (GST-GSK3 fusion protein): no
